# Starred links: 1 amine or outer side, 2 acyl side, 3 side chain; linkers in the order of their positions; H or OH if unused. Positions of bridges follow the written chain, without caps; N, C: chain ends. Non-standard residues stand in square brackets, D forms with d. Primed or numbered codes have the meaning given here. *: point of attachment. PyrS2(3) = (S)-3-amino-1-((pent-4-en-1-yloxy)carbonyl)pyrrolidine-3-carboxylic acid, stapling residue, C=CCCCOC(=O)N1CC[C@@](N[*:1])(C(=O)[*:2])C1; PyrS2″ = (S)-3-amino-1-((pent-4-en-1-yloxy)carbonyl)pyrrolidine-3-carboxylic acid (stapling residue), C=CCCCOC(=O)N1CC[C@@](N[*:1])(C(=O)[*:2])C1; B5(4) = 2,2-bis(4-pentenyl)glycine = 2-amino-2-(pent-4-en-1-yl)hept-6-enoic acid (stitching residue), C=CCCCC(CCCC=C)(N[*:1])C(=O)[*:2]; B5(5) = 2,2-bis(4-pentenyl)glycine, 2-amino-2-(pent-4-en-1-yl)hept-6-enoic acid (stitching residue), C=CCCCC(CCCC=C)(N[*:1])C(=O)[*:2]; B5(3) = 2,2-bis(4-pentenyl)glycine (stitching residue), C=CCCCC(CCCC=C)(N[*:1])C(=O)[*:2]; B5″ = 2,2-bis(4-pentenyl)glycine, stitching residue, C=CCCCC(CCCC=C)(N[*:1])C(=O)[*:2]; Phe(2-Cl) = N[C@@H](Cc1ccccc1Cl)C(=O)O; Phe(2-OMe) = COc1ccccc1C[C@H](N)C(=O)O; 1Nal = N[C@@H](Cc1cccc2ccccc12)C(=O)O; 2Nal = N[C@@H](Cc1ccc2ccccc2c1)C(=O)O; Phe(2-F) = N[C@@H](Cc1ccccc1F)C(=O)O; Bta = N[C@@H](Cc1csc2ccccc12)C(=O)O; αAllylPro = C=CC[C@@]1(C(=O)O)CCCN1; tBuAla = CC(C)(C)C[C@H](N)C(=O)O; 3Thi = N[C@@H](Cc1ccsc1)C(=O)O; Cha = N[C@@H](CC1CCCCC1)C(=O)O; S8 = C=CCCCCCC[C@](C)(N)C(=O)O; hLeu = CC(C)CC[C@H](N)C(=O)O; Prolinol = OC[C@@H]1CCCN1*; Nle = CCCC[C@H](N)C(=O)O; Dap = NC[C@H](N)C(=O)O; Aib = CC(C)(N)C(=O)O; Ms = CS(=O)(=O)*
# How the values were obtained:
# [1] = target: full-length beta-Catenin (Uniprot ID P35222) (Homo sapiens (Human)) (UniProt P35222); test: fluorescence polarization competition; full-length beta-catenin with 5FAM-labeled TCF4 residues 10-53 probe as competitor
# Target sequence in this assay (P35222 whole entry, the tested form may be a part): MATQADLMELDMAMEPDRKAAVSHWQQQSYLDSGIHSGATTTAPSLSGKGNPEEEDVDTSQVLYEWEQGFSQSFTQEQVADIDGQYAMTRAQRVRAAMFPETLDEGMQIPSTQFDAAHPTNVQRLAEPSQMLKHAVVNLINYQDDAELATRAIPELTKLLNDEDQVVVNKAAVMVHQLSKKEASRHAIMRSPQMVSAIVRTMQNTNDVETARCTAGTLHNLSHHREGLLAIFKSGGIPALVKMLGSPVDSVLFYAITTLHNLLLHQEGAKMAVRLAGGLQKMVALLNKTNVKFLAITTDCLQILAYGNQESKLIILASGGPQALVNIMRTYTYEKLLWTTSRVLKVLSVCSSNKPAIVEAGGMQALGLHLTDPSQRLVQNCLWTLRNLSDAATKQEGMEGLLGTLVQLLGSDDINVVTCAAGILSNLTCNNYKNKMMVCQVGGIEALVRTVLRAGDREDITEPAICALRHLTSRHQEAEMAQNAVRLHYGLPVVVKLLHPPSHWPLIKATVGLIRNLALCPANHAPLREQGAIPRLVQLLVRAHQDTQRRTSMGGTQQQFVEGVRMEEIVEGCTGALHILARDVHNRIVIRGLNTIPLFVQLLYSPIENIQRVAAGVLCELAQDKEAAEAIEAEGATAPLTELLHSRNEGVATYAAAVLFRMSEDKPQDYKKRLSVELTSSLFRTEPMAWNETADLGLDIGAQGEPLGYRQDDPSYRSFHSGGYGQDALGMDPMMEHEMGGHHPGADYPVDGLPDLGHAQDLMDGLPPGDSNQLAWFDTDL
# [2] = target: full-length beta-Catenin (Uniprot ID P35222) (Homo sapiens (Human)) (UniProt P35222); test: fluorescence polarization competition; displacement of 5FAM-TCF4(10-53) from full-length beta-catenin
# Target sequence in this assay (P35222 whole entry, the tested form may be a part): as above
# [3] = target: full-length beta-Catenin (Uniprot ID P35222) (Homo sapiens (Human)) (UniProt P35222); test: fluorescence polarization competition; full-length beta-catenin + 5FAM-TCF4(10-53) probe as competitor
# Target sequence in this assay (P35222 2-781 limits assumed): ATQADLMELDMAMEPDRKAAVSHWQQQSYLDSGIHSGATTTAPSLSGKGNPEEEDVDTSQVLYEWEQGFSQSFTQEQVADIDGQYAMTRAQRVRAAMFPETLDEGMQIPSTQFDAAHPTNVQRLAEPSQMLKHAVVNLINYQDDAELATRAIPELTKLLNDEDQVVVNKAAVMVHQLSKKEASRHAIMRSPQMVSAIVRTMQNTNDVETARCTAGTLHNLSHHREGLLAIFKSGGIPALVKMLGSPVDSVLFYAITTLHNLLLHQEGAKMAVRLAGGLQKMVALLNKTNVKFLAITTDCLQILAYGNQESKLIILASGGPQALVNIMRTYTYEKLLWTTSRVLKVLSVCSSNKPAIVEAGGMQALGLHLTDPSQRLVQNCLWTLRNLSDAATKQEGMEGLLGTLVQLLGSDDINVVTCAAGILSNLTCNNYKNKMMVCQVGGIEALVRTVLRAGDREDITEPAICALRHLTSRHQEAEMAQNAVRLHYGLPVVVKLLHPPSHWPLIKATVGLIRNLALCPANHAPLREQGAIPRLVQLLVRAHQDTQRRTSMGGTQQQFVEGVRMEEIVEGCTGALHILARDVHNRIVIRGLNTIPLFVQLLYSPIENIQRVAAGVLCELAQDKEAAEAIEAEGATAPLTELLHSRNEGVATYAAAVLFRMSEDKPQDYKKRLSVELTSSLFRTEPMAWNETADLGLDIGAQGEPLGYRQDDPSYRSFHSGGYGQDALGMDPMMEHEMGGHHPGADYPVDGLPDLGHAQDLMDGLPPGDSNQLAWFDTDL
# [4] = target: full-length beta-Catenin (Uniprot ID P35222) (Homo sapiens (Human)) (UniProt P35222); test: fluorescence polarization competition; 10 nM full-length beta-catenin + 10 nM 5FAM-TCF4(10-53) probe
# Target sequence in this assay (P35222 whole entry, the tested form may be a part): as the sequence (P35222 whole entry, the tested form may be a part) above
# [5] = target: full-length beta-Catenin (Uniprot ID P35222) (Homo sapiens (Human)) (UniProt P35222); test: fluorescence polarization competition; peptide titrated against 10 nM full-length beta-catenin + 10 nM 5FAM-TCF4(10-53)
# Target sequence in this assay (P35222 2-781 limits assumed): as the sequence (P35222 2-781 limits assumed) above
# [6] = target: full-length beta-Catenin (Uniprot ID P35222) (Homo sapiens (Human)) (UniProt P35222); test: fluorescence polarization competition; full-length beta-catenin, competitor 5FAM-TCF4(10-53) probe
# Target sequence in this assay (P35222 whole entry, the tested form may be a part): as the sequence (P35222 whole entry, the tested form may be a part) above
# [7] = target: full-length beta-Catenin (Uniprot ID P35222) (Homo sapiens (Human)) (UniProt P35222); test: FP competition: displacement of 5FAM-TCF4(10-53) from full-length beta-catenin
# Target sequence in this assay (P35222 whole entry, the tested form may be a part): as above
binder,measurement,setting,value
"Ac-[αAllylPro]DI[B5(4)]DDAAFN[S8][3Thi][Bta]Q-NH2 (staple 1-4, 4-11) [I-552]",IC50,[1],15.5 nM
same,EC50,[2],15.5 nM
"Ac-[αAllylPro]D[tBuAla][B5(5)]DDAAFS[PyrS2″][Phe(2-OMe)][Bta]S-NH2 (staple 1-4, 4-11) [I-1103]",IC50,[2],15 nM
same,EC50,[3],15 nM
"Ac-[αAllylPro]DA[B5(4)]D[Dap](Ms)AAFN[S8]F[Bta]Q-NH2 (staple 1-4, 4-11) [I-533]",IC50,[1],155 nM
same,EC50,[4],155 nM
"Ac-[αAllylPro]D[tBuAla][B5(5)]DEAAFL[S8][Phe(2-Cl)][Bta]Q-NH2 (staple 1-4, 4-11) [I-1096]",IC50,[2],17 nM
same,EC50,[3],17 nM
"Ac-[αAllylPro]D[tBuAla][B5(4)]DDAAFN[PyrS2″][Phe(2-Cl)][Bta]-Prolinol (staple 1-4, 4-11) [I-1084]",IC50,[5],368 nM
same,EC50,[3],368 nM
"Ac-[αAllylPro]D[Cha][B5(5)]DDAAF[Cha][PyrS2″][Phe(2-Cl)][Bta]Q-NH2 (staple 1-4, 4-11) [I-1107]",IC50,[2],18 nM
same,EC50,[3],18 nM
"Ac-[αAllylPro]DI[B5(4)]DEAA[tBuAla]Q[S8]F[Bta]Q-NH2 (staple 1-4, 4-11) [I-727]",EC50,[1],5000 nM
same,IC50,[6],5000 nM
"Ac-[αAllylPro]DI[B5(4)]DDAAFN[S8][3Thi][Bta]Q-NH2 (staple 1-4, 4-11) [I-551]",IC50,[1],45 nM
same,EC50,[2],45 nM
"Ac-[αAllylPro]DL[B5(5)]DEAAFN[S8]F[Bta]Q[Aib]-NH2 (staple 1-4, 4-11; also: earlier-eluting staple isomer) [I-736]",EC50,[1],440 nM
same,IC50,[6],440 nM
"Ac-[αAllylPro]D[2Nal][B5(5)]DDAAFS[PyrS2″][Phe(2-Cl)][Bta]Q-NH2 (staple 1-4, 4-11) [I-1109]",IC50,[2],24 nM
same,EC50,[3],24 nM
"Ac-[αAllylPro]D[tBuAla][B5(4)]DDAAFT[S8][Phe(2-Cl)][Bta][dT]-NH2 (staple 1-4, 4-11) [I-1092]",IC50,[5],26 nM
same,EC50,[3],26 nM
"Ac-[αAllylPro]D[1Nal][B5(5)]DDAAFS[PyrS2″][Phe(2-Cl)][Bta]Q-NH2 (staple 1-4, 4-11) [I-1108]",IC50,[2],18 nM
same,EC50,[3],18 nM
"Ac-[αAllylPro]D[tBuAla][B5(4)]DDAAFT[S8][Phe(2-Cl)][Bta]T-NH2 (staple 1-4, 4-11) [I-1090]",IC50,[5],18 nM
same,EC50,[3],18 nM
"Ac-[αAllylPro]D[Cha][B5(5)]DDAAFS[PyrS2″][Phe(2-F)][Bta]S-NH2 (staple 1-4, 4-11) [I-1102]",IC50,[2],16 nM
same,EC50,[3],16 nM
"Ac-[αAllylPro]D[Cha][B5(5)]DDAAFL[PyrS2″][Phe(2-Cl)][Bta]S-NH2 (staple 1-4, 4-11) [I-1112]",IC50,[2],40 nM
same,EC50,[3],40 nM
"Ac-[αAllylPro]D[tBuAla][B5(4)]DEAAFT[S8][Phe(2-Cl)][Bta]T-NH2 (staple 1-4, 4-11) [I-1091]",IC50,[5],27 nM
same,EC50,[3],27 nM
"Ac-[αAllylPro]DI[B5(4)]DDAAFN[S8][3Thi][Bta]H-NH2 (staple 1-4, 4-11) [I-555]",IC50,[1],41 nM
same,EC50,[2],41 nM
"Ac-[αAllylPro]D[tBuAla][B5(4)]DDAAFT[S8][Phe(2-Cl)][Bta]Q-NH2 (staple 1-4, 4-11; also: earlier-eluting HPLC peak staple isomer composition) [I-1086]",IC50,[5],12 nM
same,EC50,[3],12 nM
"Ac-[αAllylPro]D[tBuAla][B5(4)]DEAAFT[S8][Phe(2-Cl)][Bta][dT]-NH2 (staple 1-4, 4-11; also: earlier-eluting isomer composition) [I-1093]",IC50,[2],43 nM
same,EC50,[3],43 nM
"Ac-[αAllylPro]D[tBuAla][B5(5)]DEAAFT[S8][Phe(2-Cl)][Bta][dT]-NH2 (staple 1-4, 4-11; also: later-eluting isomer) [I-1094]",IC50,[2],46 nM
same,EC50,[3],46 nM
"Ac-[αAllylPro]D[tBuAla][B5(5)]DEAAFL[S8][Phe(2-Cl)][Bta][dT]-NH2 (staple 1-4, 4-11) [I-1098]",IC50,[2],100 nM
same,EC50,[3],100 nM
"Ac-[αAllylPro]D[tBuAla][B5(5)]DDAAFS[PyrS2″][Phe(2-F)][Bta]S-NH2 (staple 1-4, 4-11) [I-1101]",IC50,[2],14 nM
same,EC50,[3],14 nM
"Ac-[αAllylPro]DI[B5(4)]DDAAFN[S8][3Thi][Bta]H-NH2 (staple 1-4, 4-11) [I-556]",IC50,[1],20 nM
same,EC50,[2],20 nM
"Ac-[αAllylPro]D[tBuAla][B5(4)]DEAAFT[S8][Phe(2-Cl)][Bta]Q-NH2 (staple 1-4, 4-11; also: later-eluting isomer composition) [I-1089]",IC50,[5],12 nM
same,EC50,[3],12 nM
"Ac-[αAllylPro]D[Cha][B5(5)]DDAAFS[PyrS2″][Phe(2-OMe)][Bta]S-NH2 (staple 1-4, 4-11) [I-1104]",IC50,[2],10 nM
same,EC50,[3],10 nM
"Ac-[αAllylPro]D[Cha][B5(5)]DDAAFS[PyrS2″]F[Bta]S-NH2 (staple 1-4, 4-11) [I-1100]",IC50,[2],16 nM
same,EC50,[3],16 nM
"Ac-[αAllylPro]DL[B5(5)]DEAAFN[S8]F[Bta]Q[Aib]-NH2 (staple 1-4, 4-11; also: later-eluting staple isomer) [I-737]",EC50,[1],353 nM
same,IC50,[6],353 nM
"Ac-[αAllylPro][Dap](Ms)A[B5(4)]DEAAFN[S8]F[Bta]Q-NH2 (staple 1-4, 4-11) [I-534]",IC50,[1],5000 nM
same,EC50,[4],5000 nM
"Ac-[αAllylPro]D[tBuAla][B5(4)]DEAAFQ[S8]F[Bta]Q-NH2 (staple 1-4, 4-11) [I-544]",IC50,[1],24 nM
same,EC50,[2],24 nM
"Ac-[αAllylPro]DL[B5(5)]DEAAFN[S8]F[Bta]H[Aib]-NH2 (staple 1-4, 4-11) [I-743]",EC50,[1],85 nM
same,IC50,[6],85 nM
"Ac-[αAllylPro]D[hLeu][B5(4)]DEAAFQ[S8]F[Bta]Q-NH2 (staple 1-4, 4-11) [I-545]",IC50,[1],21 nM
same,EC50,[2],21 nM
"Ac-[αAllylPro]DI[B5(4)]DEAA[Nle]Q[S8]F[Bta]Q-NH2 (staple 1-4, 4-11) [I-728]",EC50,[1],289 nM
same,IC50,[6],289 nM
"Ac-[αAllylPro]D[tBuAla][B5(4)]DEAAFT[S8][Phe(2-Cl)][Bta]Q-NH2 (staple 1-4, 4-11; also: earlier-eluting isomer composition) [I-1088]",IC50,[5],22 nM
same,EC50,[3],22 nM
"Ac-[αAllylPro]D[tBuAla][B5″]NDAAFN[PyrS2(3)][3Thi][Bta]Q-NH2 (staple 1-4, 4-11) [I-1206]",EC50,[7],32 nM
"Ac-[αAllylPro]D[tBuAla][B5″]NDAAFL[PyrS2(3)][3Thi][Bta]Q-NH2 (staple 1-4, 4-11) [I-1207]",EC50,[7],40 nM

# — patent publication US20240116985A1, “STAPLED PEPTIDES AND METHODS THEREOF” (priority 2020, published 2024)
